Experimental data reported in patent publication US20230374148A1, “BINDING MOLECULES THAT MULTIMERISE CD45” (UCB BIOPHARMA SRL, priority 2020, published 2023).

T1: CD45 ECD (Homo sapiens, UniProt P08575)
T1 construct: extracellular domain of CD45 (UniProtKB—P08575, residue positions 225-573); TEV cleavage site (C); 10-His tag (C); made in house; host or cells: HEK293
T1 sequence (P08575 225-573): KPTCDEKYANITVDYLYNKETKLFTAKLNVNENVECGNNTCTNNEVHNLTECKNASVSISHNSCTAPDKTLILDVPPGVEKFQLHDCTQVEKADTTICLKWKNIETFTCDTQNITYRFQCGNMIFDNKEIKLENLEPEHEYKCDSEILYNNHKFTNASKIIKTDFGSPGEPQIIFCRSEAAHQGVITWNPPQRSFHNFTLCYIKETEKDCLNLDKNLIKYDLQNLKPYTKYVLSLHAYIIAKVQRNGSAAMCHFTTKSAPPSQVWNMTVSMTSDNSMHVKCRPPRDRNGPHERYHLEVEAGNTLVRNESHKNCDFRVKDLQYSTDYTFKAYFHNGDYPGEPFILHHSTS


Tests used:
[1] = system: Human whole blood; assay: T cell count in whole blood at 24 hrs; assay type: cell-based; settings: Fab-KD-Fab or BYbe 100 nM, Campath 10 μg/ml, in comparison with PBS- and NegCtrl BYbe-treated wells
Method: Human whole blood (Lithium heparin tubes) was taken from one donor (HTA #031219-06) at UCB Pharma Slough, UK according to approved ethical sample collection protocol.
In a Greiner 96-well non-binding microplate, Fab-X and Fab-Y combination 6294-X/4133-Y was added to PBS to give a Fab-KD-Fab concentration of 2000 nM. Similarly, stocks of 4133-6294 BYbe and NegCtrl BYbe were prepared in PBS at 2000 nM. The microplate was incubated for 1 hr at 37° C., 5% CO2. Following the incubation, Fab-KD-Fab and BYbe reagents were then serially diluted in PBS 1 in 5, seven times to produce to form an 8-point dose curve.
12.5 μl of Fab-KD-Fab or BYbe dilution was transferred into Corning Costar 96-well, cell culture treated, U-shaped-bottom microplate (cat no. 07-200-95) and 237.5 μl of whole blood added to each well. Final well concentrations of Fab-KD-Fab or BYbes were 100-0.00128 nM. Campath (clinical grade, diluted from 30 mg/ml stock to 1 mg/ml in PBS, lot number F1002H29) was used as a positive control at a final concentration of 10 μg/ml. Plates were sealed with a gas permeable adhesive seal and plate lids were replaced. […]
Following the incubation with the antibody cocktail, cells were washed twice as outlined above and buffer aspirated to leave the cells in 20 μl residual buffer. […] Cells were analysed live using the Intellicyt iQue Screener PLUS. […]

[2] = biological target: T1, CD45 ECD; assay: Sedimentation velocity, analytical ultracentrifuge; assay type: binding; settings: for Experimental S value: molar 1:1 mixture
Method: CD45 ECD and 4133-6294 BYbe were mixed in a molar ratio of 1:1 and incubated for 1 hour at room temperature. The molar ratio was determined using the predicted mass of 4133-6294 BYbe at 73.5 kDa and the mass of CD45 ECD as determined by mass photometry at 62 kDa.
The CD45 ECD-4133-6294 BYbe mixture, CD45 ECD only or 4133-6294 BYbe only were loaded into cells with 2-channel charcoal-epon centrepieces with 12 mm optical path length and glass quartz glass windows. The corresponding buffer was loaded into the reference channel of each cell (the instrument functions like a dual beam spectrometer). Those loaded cells were then placed into an AN-60Ti analytical rotor, loaded into a Beckman-coulter Optima analytical ultracentrifuge and brought to 20° C. The rotor was then brought to 3,000 rpm and the samples were scanned at 280 nm to confirm proper cell loading and appropriate adjustment of the laser, via the laser delay setting. The rotor was then brought to the final run speed of 50,000 rpm. Scans were recorded every 20 seconds for 8 hours. Radial scans ranged from 5.75 to 7.25 cm.
The data were analysed using the c(s) method developed by peter Shuck at the N.I.H and implemented in his analysis program SEDFIT version 14.6e. In this approach many raw data scans directly fitted (36,000 data points for each sample in this case) to derive the distribution of sedimentation coefficients, while modelling the influence of diffusion on the data in order to enhance the resolution. The method works by assigning a diffusion coefficient to each value of sedimentation coefficient based on an assumption that all species have the same overall hydrodynamic shape (with shape defined by the frictional coefficient relative to that for a sphere, f/f0). The f/f0 values were varied to find the best overall fit of the data for each sample. A maximum entropy regularization probability of 0.95 was used and time invariant noise was removed. The analysis was performed using the standard solvent model.

Experimental S value ([2]; CD45 1:1 BYbe complex)	Percentage of area under the curve ([2]; CD45 1:1 BYbe in molar 1:1 mixture)	Experimental S value ([2]; CD45 2:1 BYbe complex)	Experimental S value ([2]; CD45 2:2 BYbe complex)	Percentage of area under the curve ([2]; CD45 2:2 BYbe in molar 1:1 mixture)	Experimental S value ([2]; CD45 3:3 BYbe complex)	Percentage of area under the curve ([2]; CD45 3:3 BYbe in molar 1:1 mixture)	Experimental S value ([2]; CD45 4:3 BYbe complex)	Experimental S value ([2]; CD45 4:4 BYbe complex)	Percentage of area under the curve ([2]; CD45 4:4 BYbe in molar 1:1 mixture)	Percentage of area under the curve ([2]; CD45 (uncomplexed) in molar 1:1 mixture of CD45 ECD and BYbe)	Molecule	reduction in T cell numbers [1]
–	–	–	–	–	–	–	–	–	–	–	Campath: anti-CD52, clinical grade, indicated by FDA for B-cell Chronic Lymphocytic Leukaemia; positive control [reference compound]	roughly 8 fold
6.9 S	11.99%	7.15 S	8.78 S	37.7%	10.04 S	35.7%	11.12 S	13.3 S	3.46%	9.21%	4133-6294 BYbe: anti-CD45 BYbe (Fab-scFv): 4133 Fab HC-G4S linker-6294 scFv heavy chain paired with 4133 light chain (antibody) heavy: QEQLVESGGGLVQPEGSLTLTCTASGFSFSGNYYMCWVRQAPGKGLEWIGCLYTGSSGSTYYASWAKGRFTISKTSSTTVTLQMTSLTAADTATYFCARDLGYEIDGYGGLWGQGTLVTVSSGQPKAPSVFPLAPCCGDTPSSTVTLGCLVKGYLPEPVTVTWNSGTLTNGVRTFPSVRQSSGLYSLSSVVSVTSSSQPVTCNVAHPATNTKVDKTVAPSTCSKPGGGGSGGGGSEVQLVESGAELARPGASVKMSCKASGYTFTSYTMHWVKQRPGQCLEWIGYINPSSGYTEYNQKFKDKTTLTADKSSSTAYLQLSSLTSEDSAVYYCARVGDGFYPSWLAYWGQGTLVTVSSGGGGSGGGGSGGGGSGGGGSDIQMTQSPKFLLVSAGDRVTITCKASQSVRNDVAWYQQKPGQSPKLLIFYASKRYTGVPDRFTGSGYGTDFTFTISTVQAEDLAVYFCQQDYSSPTTFGCGTKLEIK light: AQVLTQTPSPVSAVVGGTVSISCQASQSVYNNNNLSWYQQKPGQPPKLLIYDASKLASGVPSRFKGSGSGTQFTLTISGVQCDDAATYYCLGGYYSSGWYFAFGGGTKVVVKRTPVAPTVLIFPPAADQVATGTVTIVCVANKYFPDVTVTWEVDGTTQTTGIENSKTPQNSADCTYNLSSTLTLTSTQYNSHKEYTCKVTQGTTSVVQSFNRGDC	5 fold
